{"source": "patent US20210332109A1", "about": "(TANAKA KIKINZOKU KOGYO K K, published 2021)", "molecular_target": "T1, protein VZV gE (amino acid sequence at positions 48 to 88) (varicella-zoster virus)", "T1 peptide": "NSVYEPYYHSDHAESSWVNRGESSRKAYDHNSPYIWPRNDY", "test": "ELISA, peptide coated on the plate, antibody at 5 ug/mL", "experimental": "After 16 hours, the gE solution was removed, and the well was washed three times with 300 μL of PBST (0.05% Tween 20 in PBS). The liquid remaining in the well was removed by tapping on a paper towel.\nAs a blocking solution, 300 μL of 5% BSA in PBST (BSA: manufactured by Oriental Yeast Co., Ltd.) was added, followed by incubation at 37° C. for 1 hour. Thereafter, the BSA solution was removed, and the well was washed three times with 300 μL of PBST (0.05% Tween 20 in PBS). The liquid remaining in the well was removed by tapping on a paper towel. […] Thereafter, the primary antibody solution was removed, and the well was washed three times with 300 μL of PBST (0.05% Tween 20 in PBS)."}
{"binder": "Antibody 18 (antibody, V domains shown, also called antibody (II); monoclonal antibody produced by Hybridoma 18) VH: EVQLQESGPGLVKPSQSLSLTCTVTGYSITSDYAWNWIRQFPGNKLEWMGYISYSGNSSYNPSLKSRISFTRDTSKNQFFLQLNSVTTEDTATYYCARDGSRGFDYWGQGTTLTVSS VL: not shown", "values": [{"measurement": "binding result", "result": "binds"}]}
